Test results: patent US20180086841A1

What was measured:
W90A [1] = assay: flow cytometry on CHO-K1 transfectants, right sub-column, cell hatched (loss of binding)
R87A [2] = assay: as above
V30A [3] = assay: flow cytometry on CHO-K1 transfectants, left sub-column
E9A [4] = assay: as above
P44A [5] = assay: as above
V49A [6] = assay: as above
Q15A [7] = assay: as above
F28A [8] = assay: as above
G16A [9] = assay: as above
K31A [10] = assay: as above
K17A [11] = assay: as above
H36A [12] = assay: as above
H60A [13] = assay: as above
K38A [14] = assay: as above
R10A [15] = assay: as above
W90A [16] = assay: flow cytometry on CHO-K1 transfectants, left sub-column, cell hatched (loss of binding)
R87A [17] = assay: as above
D43A = assay: flow cytometry on CHO-K1 transfectants, right sub-column
V30A [18] = assay: as above
S63A = assay: as above
W13A = assay: as above
Q41A = assay: as above
P8A = assay: as above
E9A [19] = assay: as above
P44A [20] = assay: as above
G89A = assay: as above
R93A = assay: as above
V49A [21] = assay: as above
R37A = assay: as above
Q15A [22] = assay: as above
Q91A = assay: as above
F28A [23] = assay: as above
G16A [24] = assay: as above
K31A [25] = assay: as above
K17A [26] = assay: as above
H36A [27] = assay: as above
H60A [28] = assay: as above
D32A = assay: as above
I46A = assay: as above
N88A = assay: as above
K38A [29] = assay: as above
R10A [30] = assay: as above
[31] = biological target: Macaca mulatta CD27 (mmCD27) (Macaca mulatta (rhesus) / Macaca fascicularis (cynomolgus)); assay: cell-based or functional assay
[32] = biological target: human CD27 (A59T) (human) (UniProt P26842); assay: cell-based or functional assay
human CD27 (human) [33] = biological target: human CD27 (human) (UniProt P26842); assay: cell-based or functional assay
[34] = biological target: Macaca mulatta CD27 (mmCD27) (Macaca mulatta (rhesus) / Macaca fascicularis (cynomolgus)); assay: flow cytometry MFI, CD4+ T cells in rhesus peripheral blood, n=4
[35] = biological target: Macaca mulatta CD27 (mmCD27) (Macaca mulatta (rhesus) / Macaca fascicularis (cynomolgus)); assay: cell ELISA on CD27-transfected CHOK1 cells, n=2
[36] = biological target: human CD27 (A59T) (human) (UniProt P26842); assay: cell ELISA on CD27-transfected CHOK1 cells, n=2
human CD27 (human) [37] = biological target: human CD27 (human) (UniProt P26842); assay: cell ELISA on CD27-transfected CHOK1 cells, n=2
[38] = biological target: Macaca mulatta CD27 (mmCD27) (Macaca mulatta (rhesus) / Macaca fascicularis (cynomolgus)); assay: flow cytometry MFI, CD8+ T cells in rhesus peripheral blood, n=4
human CD27 (human) [39] = biological target: human CD27 (human) (UniProt P26842); assay: competition cell ELISA on CHO-hCD27; competitor detected: mouse hCD27.15 at 1 µg/ml

Chain of 1F5-hIgG1 (antibody) (VH): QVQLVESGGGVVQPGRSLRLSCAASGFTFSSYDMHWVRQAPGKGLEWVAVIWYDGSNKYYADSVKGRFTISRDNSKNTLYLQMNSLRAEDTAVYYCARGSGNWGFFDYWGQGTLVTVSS
Chain of 1F5-hIgG1 (antibody) (VL): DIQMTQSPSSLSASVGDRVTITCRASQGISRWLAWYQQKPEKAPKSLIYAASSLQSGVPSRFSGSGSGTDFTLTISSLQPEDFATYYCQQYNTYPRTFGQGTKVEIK
Chain of H60A (receptor chain, as listed by the source H60A H60A limits assumed): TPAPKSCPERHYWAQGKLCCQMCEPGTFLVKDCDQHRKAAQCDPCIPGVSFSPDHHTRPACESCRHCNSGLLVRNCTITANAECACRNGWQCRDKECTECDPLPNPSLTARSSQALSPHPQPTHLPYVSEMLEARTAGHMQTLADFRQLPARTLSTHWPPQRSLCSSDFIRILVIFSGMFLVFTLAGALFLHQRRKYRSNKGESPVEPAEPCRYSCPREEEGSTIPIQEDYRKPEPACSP
Chain of H36A (receptor chain, as listed by the source H36A H36A limits assumed): as the sequence (receptor chain, as listed by the source H60A H60A limits assumed) above, with H36A, A60H counted along it
Chain of F28A (receptor chain, as listed by the source F28A F28A limits assumed): as the sequence (receptor chain, as listed by the source H60A H60A limits assumed) above, with F28A, A60H counted along it
Chain of V49A (receptor chain, as listed by the source V49A V49A limits assumed): as the sequence (receptor chain, as listed by the source H60A H60A limits assumed) above, with V49A, A60H counted along it
Chain of K38A (receptor chain, as listed by the source K38A K38A limits assumed): as the sequence (receptor chain, as listed by the source H60A H60A limits assumed) above, with K38A, A60H counted along it
Chain of R10A (receptor chain, as listed by the source R10A R10A limits assumed): as the sequence (receptor chain, as listed by the source H60A H60A limits assumed) above, with R10A, A60H counted along it
Chain of E9A (receptor chain, as listed by the source limits assumed): as the sequence (receptor chain, as listed by the source H60A H60A limits assumed) above, with E9A, A60H counted along it
Chain of V30A (receptor chain, as listed by the source V30A V30A limits assumed): as the sequence (receptor chain, as listed by the source H60A H60A limits assumed) above, with V30A, A60H counted along it
Chain of K31A (receptor chain, as listed by the source K31A K31A limits assumed): as the sequence (receptor chain, as listed by the source H60A H60A limits assumed) above, with K31A, A60H counted along it
Chain of R87A (receptor chain, as listed by the source R87A R87A limits assumed): as the sequence (receptor chain, as listed by the source H60A H60A limits assumed) above, with A60H, R87A counted along it
Chain of K17A (receptor chain, as listed by the source K17A K17A limits assumed): as the sequence (receptor chain, as listed by the source H60A H60A limits assumed) above, with K17A, A60H counted along it
Chain of P44A (receptor chain, as listed by the source P44A P44A limits assumed): as the sequence (receptor chain, as listed by the source H60A H60A limits assumed) above, with P44A, A60H counted along it
Chain of G16A (receptor chain, as listed by the source G16A G16A limits assumed): as the sequence (receptor chain, as listed by the source H60A H60A limits assumed) above, with G16A, A60H counted along it
Chain of W90A (receptor chain, as listed by the source W90A W90A limits assumed): as the sequence (receptor chain, as listed by the source H60A H60A limits assumed) above, with A60H, W90A counted along it
Chain of Q15A (receptor chain, as listed by the source Q15A Q15A limits assumed): as the sequence (receptor chain, as listed by the source H60A H60A limits assumed) above, with Q15A, A60H counted along it
Chain of D32A (receptor chain, as listed by the source D32A D32A limits assumed): as the sequence (receptor chain, as listed by the source H60A H60A limits assumed) above, with D32A, A60H counted along it
Chain of Q41A (receptor chain, as listed by the source Q41A Q41A limits assumed): as the sequence (receptor chain, as listed by the source H60A H60A limits assumed) above, with Q41A, A60H counted along it
Chain of Q91A (receptor chain, as listed by the source Q91A Q91A limits assumed): as the sequence (receptor chain, as listed by the source H60A H60A limits assumed) above, with A60H, Q91A counted along it

Work on 1F5-hIgG1 (antibody) yielded a binding, WT hCD27 = 100 (GM FITC) (W90A [1]) of 10%, a binding, WT hCD27 = 100 (GM FITC) (R87A [2]) of 7.8% and a binding, WT hCD27 = 100 (GM FITC) (V30A [3]) of 171%. The binding, WT hCD27 = 100 (GM FITC) (E9A [4]) was 95.4%, the binding, WT hCD27 = 100 (GM FITC) (P44A [5]) was 150% and the binding, WT hCD27 = 100 (GM FITC) (V49A [6]) was 143%. The binding, WT hCD27 = 100 (GM FITC) (Q15A [7]) was 99%, the binding, WT hCD27 = 100 (GM FITC) (F28A [8]) was 113% and the binding, WT hCD27 = 100 (GM FITC) (G16A [9]) was 96%. It also gave a binding, WT hCD27 = 100 (GM FITC) (K31A [10]) of 205%, a binding, WT hCD27 = 100 (GM FITC) (K17A [11]) of 95.1% and a binding, WT hCD27 = 100 (GM FITC) (H36A [12]) of 116%. For the same substance, the binding, WT hCD27 = 100 (GM FITC) (H60A [13]) was 176%, the binding, WT hCD27 = 100 (GM FITC) (K38A [14]) was 96.5% and the binding, WT hCD27 = 100 (GM FITC) (R10A [15]) was 105%. The binding, WT hCD27 = 100 (GM FITC) (W90A [16]) was 42.5%, the binding, WT hCD27 = 100 (GM FITC) (R87A [17]) was 40.8% and the binding, WT hCD27 = 100 (GM FITC) (D43A) was 86.1%. It also gave a binding, WT hCD27 = 100 (GM FITC) (V30A [18]) of 88.9%, a binding, WT hCD27 = 100 (GM FITC) (S63A) of 121% and a binding, WT hCD27 = 100 (GM FITC) (W13A) of 82.8%. The binding, WT hCD27 = 100 (GM FITC) (Q41A) was 66.3%, the binding, WT hCD27 = 100 (GM FITC) (P8A) was 73.1% and the binding, WT hCD27 = 100 (GM FITC) (E9A [19]) was 120%. The binding, WT hCD27 = 100 (GM FITC) (P44A [20]) was 83.7%, the binding, WT hCD27 = 100 (GM FITC) (G89A) was 68.5% and the binding, WT hCD27 = 100 (GM FITC) (R93A) was 85.5%. For the same substance, the binding, WT hCD27 = 100 (GM FITC) (V49A [21]) was 92.8%, the binding, WT hCD27 = 100 (GM FITC) (R37A) was 88% and the binding, WT hCD27 = 100 (GM FITC) (Q15A [22]) was 127%. It also gave a binding, WT hCD27 = 100 (GM FITC) (Q91A) of 115%, a binding, WT hCD27 = 100 (GM FITC) (F28A [23]) of 46.2% and a binding, WT hCD27 = 100 (GM FITC) (G16A [24]) of 101%. For the same substance, the binding, WT hCD27 = 100 (GM FITC) (K31A [25]) was 120%, the binding, WT hCD27 = 100 (GM FITC) (K17A [26]) was 112% and the binding, WT hCD27 = 100 (GM FITC) (H36A [27]) was 80%. It also gave a binding, WT hCD27 = 100 (GM FITC) (H60A [28]) of 110%, a binding, WT hCD27 = 100 (GM FITC) (D32A) of 59.6% and a binding, WT hCD27 = 100 (GM FITC) (I46A) of 69.7%. For the same substance, the binding, WT hCD27 = 100 (GM FITC) (N88A) was 119%, the binding, WT hCD27 = 100 (GM FITC) (K38A [29]) was 94.2% and the binding, WT hCD27 = 100 (GM FITC) (R10A [30]) was 113%. It also gave an NF-κB-luciferase reporter assay, Emax [31] of 1.33 fold change, an NF-κB-luciferase reporter assay, Emax [32] of 1.3 fold change and an NF-κB-luciferase reporter assay, Emax (human CD27 (human) [33]) of 1.48 fold change. The EC50 [34] was 1.58 nM, the EC50 [35] was 0.193 nM and the EC50 [36] was 0.326 nM. For the same substance, the EC50 (human CD27 (human) [37]) was 0.325 nM, the EC50 [38] was 1.92 nM and the IC50 (read off the curve) (human CD27 (human) [39]) was 4 nM.
